Assay results: patent publication US20200024330A1

Key:
Assay in all cases: cell-based or functional assay
[1] = biological target: HIV-1 Env of isolate MGRM-G-017 (HIV-1)
[2] = biological target: HIV-1 Env of isolate MGRM-AE-005 (HIV-1)
[3] = biological target: HIV-1 Env of isolate MGRM-G-011 (HIV-1)
[4] = biological target: HIV-1 Env of isolate MGRM-G-001 (HIV-1)
[5] = biological target: HIV-1 Env of isolate MGRM-AE-007 (HIV-1)
[6] = biological target: HIV-1 Env of isolate MGRM-G-014 (HIV-1)
[7] = biological target: HIV-1 Env of isolate MGRM-C-028 (pseudovirus) (HIV-1 isolate MGRM-C-028, subtype C)
[8] = biological target: HIV-1 Env of isolate MGRM-G-006 (HIV-1)
[9] = biological target: HIV-1 Env of isolate MGRM-G-004 (HIV-1)
[10] = biological target: HIV-1 92RW020 envelope glycoprotein (Env) on pseudovirus (HIV-1)
[11] = biological target: HIV-1 Env of isolate MGRM-AE-004 (HIV-1)
[12] = biological target: HIV-1 Env of isolate MGRM-G-016 (HIV-1)
[13] = biological target: HIV-1 92BR020 envelope glycoprotein (Env) on pseudovirus (HIV-1)
[14] = biological target: HIV-1 92TH021 envelope glycoprotein (Env) on pseudovirus (HIV-1)
[15] = biological target: HIV-1 Env of isolate MGRM-G-013 (HIV-1)
[16] = biological target: aMLV envelope (negative control pseudovirus)
[17] = biological target: HIV-1 Env of isolate MGRM-G-027 (HIV-1)
[18] = biological target: HIV-1 NL43 envelope glycoprotein (Env) on pseudovirus (HIV-1)
[19] = biological target: HIV-1 92UG024 envelope glycoprotein (Env) on pseudovirus (HIV-1)
[20] = biological target: HIV-1 Env of isolate MGRM-G-009 (HIV-1)
[21] = biological target: HIV-1 Env of isolate MGRM-AE-008 (HIV-1)
[22] = biological target: HIV-1 Env of isolate MGRM-G-019 (HIV-1)
[23] = biological target: HIV-1 Env of isolate MGRM-G-015 (HIV-1)
[24] = biological target: HIV-1 Env of isolate MGRM-AE-006 (HIV-1)
[25] = biological target: HIV-1 Env of isolate MGRM-G-025 (HIV-1)

Question: 4877_D15 (PGT-122) (antibody) was tested. Which IC50, pseudovirus neutralization [1] did it give?
Answer: 0.032 µg/mL

Question: And the neutralization IC50 [2]?
Answer: > 50 µg/mL

Question: And the IC50, pseudovirus neutralization [3]?
Answer: 31.3 µg/mL

Question: What about the IC50, pseudovirus neutralization [4] of the same substance?
Answer: 0.005 µg/mL

Question: And the neutralization IC50 [5]?
Answer: > 50 µg/mL

Question: And the IC50, pseudovirus neutralization [6]?
Answer: 0.008 µg/mL

Question: And the IC50 (µg/mL) neutralization [7]?
Answer: 2.22 µg/mL

Question: What about the IC50, pseudovirus neutralization [8] of the same substance?
Answer: > 50 µg/mL

Question: And the IC50, pseudovirus neutralization [9]?
Answer: 2.15 µg/mL

Question: And the IC50 (ug/ml), neutralizing activity [10]?
Answer: 0.0072 µg/mL

Question: What about the neutralization IC50 [11] of the same substance?
Answer: > 50 µg/mL

Question: And the IC50, pseudovirus neutralization [12]?
Answer: > 50 µg/mL

Question: What about the IC50 (ug/ml), neutralizing activity [13] of the same substance?
Answer: 0.0337 µg/mL

Question: And the IC50 (ug/ml), neutralizing activity [14]?
Answer: > 10 µg/mL

Question: And the IC50, pseudovirus neutralization [15]?
Answer: 3.45 µg/mL

Question: What about the IC50, pseudovirus neutralization [16] of the same substance?
Answer: > 50 µg/mL

Question: What about the Neutralization by PGT-122, IC50 [16] of the same substance?
Answer: > 10 µg/mL

Question: And the Neutralization by PGT-122, IC80 [16]?
Answer: > 10 µg/mL

Question: And the Neutralization by PGT-122, IC90 [16]?
Answer: > 10 µg/mL

Question: And the Neutralization by PGT-122, IC95 [16]?
Answer: > 10 µg/mL

Question: What about the IC50, pseudovirus neutralization [17] of the same substance?
Answer: 0.606 µg/mL

Question: And the IC50 (ug/ml), neutralizing activity [18]?
Answer: > 10 µg/mL

Question: And the IC50 (ug/ml), neutralizing activity [19]?
Answer: > 10 µg/mL

Question: What about the IC50, pseudovirus neutralization [20] of the same substance?
Answer: 0.514 µg/mL

Question: What about the neutralization IC50 [21] of the same substance?
Answer: > 50 µg/mL

Question: What about the IC50, pseudovirus neutralization [22] of the same substance?
Answer: 0.016 µg/mL

Question: And the IC50, pseudovirus neutralization [23]?
Answer: > 50 µg/mL

Question: What about the neutralization IC50 [24] of the same substance?
Answer: > 50 µg/mL

Question: What about the IC50, pseudovirus neutralization [25] of the same substance?
Answer: 0.079 µg/mL

Question: What does the source list for 5123_A06 (PGT-125) (antibody)?
Answer: IC50, pseudovirus neutralization [1]: > 50 µg/mL; neutralization IC50 [2]: 0.01 µg/mL; IC50, pseudovirus neutralization [3]: > 50 µg/mL; IC50, pseudovirus neutralization [4]: 0.033 µg/mL; neutralization IC50 [5]: 0.876 µg/mL; IC50, pseudovirus neutralization [6]: 0.007 µg/mL; IC50 (µg/mL) neutralization [7]: 14 µg/mL; IC50, pseudovirus neutralization [8]: > 50 µg/mL; IC50, pseudovirus neutralization [9]: > 50 µg/mL; IC50 (ug/ml), neutralizing activity [10]: 0.0028 µg/mL; neutralization IC50 [10]: 0.0028 µg/mL; neutralization IC80 [10]: 0.011 µg/mL; neutralization IC90 [10]: 0.0248 µg/mL; neutralization IC95 [10]: 0.0526 µg/mL; neutralization IC50 [11]: > 50 µg/mL; IC50, pseudovirus neutralization [12]: > 50 µg/mL; IC50 (ug/ml), neutralizing activity [13]: 0.0214 µg/mL; neutralization IC50 [13]: 0.0214 µg/mL; neutralization IC80 [13]: 0.0738 µg/mL; neutralization IC90 [13]: 0.156 µg/mL; neutralization IC95 [13]: 0.323 µg/mL; IC50 (ug/ml), neutralizing activity [14]: 0.0066 µg/mL; neutralization IC50 [14]: 0.0066 µg/mL; neutralization IC80 [14]: 0.0292 µg/mL; neutralization IC90 [14]: 0.0701 µg/mL; neutralization IC95 [14]: 0.157 µg/mL; IC50, pseudovirus neutralization [15]: > 50 µg/mL; IC50, pseudovirus neutralization [16]: > 50 µg/mL; IC50, pseudovirus neutralization [17]: 34.4 µg/mL; IC50 (ug/ml), neutralizing activity [18]: > 10 µg/mL; neutralization IC50 [18]: > 10 µg/mL; neutralization IC80 [18]: > 10 µg/mL; neutralization IC90 [18]: > 10 µg/mL; neutralization IC95 [18]: > 10 µg/mL; IC50 (ug/ml), neutralizing activity [19]: > 10 µg/mL; neutralization IC50 [19]: > 10 µg/mL; neutralization IC80 [19]: > 10 µg/mL; neutralization IC90 [19]: > 10 µg/mL; neutralization IC95 [19]: > 10 µg/mL; IC50, pseudovirus neutralization [20]: > 50 µg/mL; neutralization IC50 [21]: > 50 µg/mL; IC50, pseudovirus neutralization [22]: > 50 µg/mL; IC50, pseudovirus neutralization [23]: > 50 µg/mL; neutralization IC50 [24]: 0.009 µg/mL; IC50, pseudovirus neutralization [25]: > 50 µg/mL

Question: How did the IC50, pseudovirus neutralization [1] turn out when 5145_B14 (PGT-127) (antibody) was run?
Answer: > 50 µg/mL

Question: And the neutralization IC50 [2]?
Answer: > 50 µg/mL

Question: And the IC50, pseudovirus neutralization [3]?
Answer: > 50 µg/mL

Question: What about the IC50, pseudovirus neutralization [4] of the same substance?
Answer: 0.113 µg/mL

Question: And the neutralization IC50 [5]?
Answer: > 50 µg/mL

Question: What about the IC50, pseudovirus neutralization [6] of the same substance?
Answer: 0.009 µg/mL

Question: What about the IC50 (µg/mL) neutralization [7] of the same substance?
Answer: 7.57 µg/mL

Question: And the IC50, pseudovirus neutralization [8]?
Answer: > 50 µg/mL

Question: What about the IC50, pseudovirus neutralization [9] of the same substance?
Answer: > 50 µg/mL

Question: What about the neutralization IC50 [11] of the same substance?
Answer: > 50 µg/mL

Question: And the IC50, pseudovirus neutralization [12]?
Answer: > 50 µg/mL

Question: And the IC50, pseudovirus neutralization [15]?
Answer: 7.7 µg/mL

Question: What about the IC50, pseudovirus neutralization [16] of the same substance?
Answer: > 50 µg/mL

Question: And the IC50, pseudovirus neutralization [17]?
Answer: > 50 µg/mL

Question: And the IC50, pseudovirus neutralization [20]?
Answer: > 50 µg/mL

Question: What about the neutralization IC50 [21] of the same substance?
Answer: > 50 µg/mL

Question: And the IC50, pseudovirus neutralization [22]?
Answer: 0.429 µg/mL

Question: And the IC50, pseudovirus neutralization [23]?
Answer: > 50 µg/mL

Question: What about the neutralization IC50 [24] of the same substance?
Answer: > 50 µg/mL

Question: What about the IC50, pseudovirus neutralization [25] of the same substance?
Answer: 19.3 µg/mL
